# According to patent US20180148504A1:
# B1: farletuzumab (MORAb-003) (antibody, part only; not given: Constant regions, V domains shown, not shown: another chain or arm of the molecule)
# VH: EVQLVESGGGVVQPGRSLRLSCSASGFTFSGYGLSWVRQAPGKGLEWVAMISSGGSYTYYADSVKGRFAISRDNAKNTLFLQMDSLRPEDTGVYFCARHGDDPAWFAYWGQGTPVTVSS
# VL: DIQLTQSPSSLSASVGDRVTITCSVSSSISSNNLHWYQQKPGKAPKPWIYGTSNLASGVPSRFSGSGSGTDYTFTISSLQPEDIATYYCQQWSSYPYMYTFGQGTKVEIK
# How the values were obtained:
# [1] = molecular target: endogenous folate receptor alpha in human serum and plasma samples (human) (UniProt P15328); assay: ECL sandwich capture 6A2.G7 / detection 6A2.G7; serum incubated overnight with 10 µg/mL MORAb-003; no % sign in this cell
# Chain of endogenous folate receptor alpha in human serum and plasma samples (human) (P15328 25-234 limits assumed, form in doubt): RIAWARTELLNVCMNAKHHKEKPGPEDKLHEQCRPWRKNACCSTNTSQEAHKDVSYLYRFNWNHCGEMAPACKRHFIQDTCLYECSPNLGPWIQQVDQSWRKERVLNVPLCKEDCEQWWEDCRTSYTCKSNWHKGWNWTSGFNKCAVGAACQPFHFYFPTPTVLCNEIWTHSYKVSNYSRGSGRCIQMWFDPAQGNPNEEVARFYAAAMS
# [2] = molecular target: recombinant purified FRα (ECL assay calibrator) (human) (UniProt P15328); assay: ECL sandwich competition; competitors 9F3 capture / 24F12 detection; FRα standard STD08; MORAb-003 10 µg/mL
# Chain of recombinant purified FRα (ECL assay calibrator) (human) (P15328 25-234 limits assumed): as the sequence (P15328 25-234 limits assumed, form in doubt) above
# [3] = molecular target: recombinant purified FRα (ECL assay calibrator) (human) (UniProt P15328); assay: ECL sandwich capture 30G6.G6.G4.E9 / detection 1D2.G8.G10; calibrator incubated overnight with 10 µg/mL MORAb-003
# [4] = molecular target: endogenous folate receptor alpha in human serum and plasma samples (human) (UniProt P15328); assay: ECL sandwich capture 19D4.B7 / detection 24H8.D3; serum incubated overnight with 10 µg/mL MORAb-003
# [5] = molecular target: recombinant purified FRα (ECL assay calibrator) (human) (UniProt P15328); assay: ECL sandwich competition; competitors 9F3 capture / 24F12 detection; FRα standard STD03; MORAb-003 10 µg/mL
# [6] = molecular target: recombinant purified FRα (ECL assay calibrator) (human) (UniProt P15328); assay: ECL sandwich capture 30G6.G6.G4.E9 / detection 26A9.C4; calibrator incubated overnight with 10 µg/mL MORAb-003
# [7] = molecular target: recombinant purified FRα (ECL assay calibrator) (human) (UniProt P15328); assay: ECL sandwich competition; competitors 9F3 capture / 24F12 detection; FRα standard STD04; MORAb-003 10 µg/mL
# [8] = molecular target: recombinant purified FRα (ECL assay calibrator) (human) (UniProt P15328); assay: ECL sandwich capture 1C6.E12.G8 / detection 19D4.B7; calibrator incubated overnight with 10 µg/mL MORAb-003
# [9] = molecular target: recombinant purified FRα (ECL assay calibrator) (human) (UniProt P15328); assay: ECL sandwich capture 6A2.G7 / detection 1A8.G11.E7; calibrator incubated overnight with 10 µg/mL MORAb-003
# [10] = molecular target: recombinant purified FRα (ECL assay calibrator) (human) (UniProt P15328); assay: ECL sandwich capture 19D4.B7 / detection 19D2.G9; calibrator incubated overnight with 10 µg/mL MORAb-003
# [11] = molecular target: recombinant purified FRα (ECL assay calibrator) (human) (UniProt P15328); assay: ECL sandwich capture 19D4.B7 / detection 28H12.G9; calibrator incubated overnight with 10 µg/mL MORAb-003
# [12] = molecular target: endogenous folate receptor alpha in human serum and plasma samples (human) (UniProt P15328); assay: ECL sandwich competition; competitors 24H8.D3 capture / 19D4.B7 detection; serum of sample #DLSO-015; MORAb-003 100 µg/mL
# [13] = molecular target: recombinant purified FRα (ECL assay calibrator) (human) (UniProt P15328); assay: ECL sandwich, positive control +CONT: capture 26B3.F2 (f1) / detection 19D4.B7; calibrator incubated overnight with 10 µg/mL MORAb-003
# [14] = molecular target: recombinant purified FRα (ECL assay calibrator) (human) (UniProt P15328); assay: ECL sandwich capture 6A2.G7 / detection 24H8.D3; calibrator incubated overnight with 10 µg/mL MORAb-003
# [15] = molecular target: recombinant purified FRα (ECL assay calibrator) (human) (UniProt P15328); assay: ECL sandwich capture 6A2.G7 / detection 19D2.G9; calibrator incubated overnight with 10 µg/mL MORAb-003
# [16] = molecular target: endogenous folate receptor alpha in human serum and plasma samples (human) (UniProt P15328); assay: ECL sandwich capture 6A2.G7 / detection 1C6.E12.G8; serum incubated overnight with 10 µg/mL MORAb-003
# [17] = molecular target: recombinant purified FRα (ECL assay calibrator) (human) (UniProt P15328); assay: ECL sandwich capture 19D4.B7 / detection 6A2.G7; calibrator incubated overnight with 10 µg/mL MORAb-003
# [18] = molecular target: recombinant purified FRα (ECL assay calibrator) (human) (UniProt P15328); assay: ECL sandwich capture 19D4.B7 / detection 1D2.G8.G10; calibrator incubated overnight with 10 µg/mL MORAb-003
# [19] = molecular target: recombinant purified FRα (ECL assay calibrator) (human) (UniProt P15328); assay: ECL sandwich capture 30G6.G6.G4.E9 / detection 2F11.F8; calibrator incubated overnight with 10 µg/mL MORAb-003
# [20] = molecular target: endogenous folate receptor alpha in human serum and plasma samples (human) (UniProt P15328); assay: ECL sandwich capture 19D4.B7 / detection 1D2.G8.G10; serum incubated overnight with 10 µg/mL MORAb-003
# [21] = molecular target: endogenous folate receptor alpha in human serum and plasma samples (human) (UniProt P15328); assay: ECL sandwich capture 19D2.G9 / detection 26A9.C4; serum incubated overnight with 10 µg/mL MORAb-003
# [22] = molecular target: endogenous folate receptor alpha in human serum and plasma samples (human) (UniProt P15328); assay: ECL sandwich capture 19D2.G9 / detection 19D4.B7; serum incubated overnight with 10 µg/mL MORAb-003
# [23] = molecular target: recombinant purified FRα (ECL assay calibrator) (human) (UniProt P15328); assay: ECL sandwich capture 30G6.G6.G4.E9 / detection 5C12.H8; calibrator incubated overnight with 10 µg/mL MORAb-003
# [24] = molecular target: recombinant purified FRα (ECL assay calibrator) (human) (UniProt P15328); assay: ECL sandwich competition; competitors 9F3 capture / 24F12 detection; FRα standard STD04; MORAb-003 50 µg/mL
binder,measurement,setting,value
B1,Drug suppression of serum,[1],-45.8
same,% of signal without MORAb-003 (MORAb-003 interference),[2],121%
same,Drug Suppression of Cal Signal at 500 pg/mL,[3],8%
same,Drug suppression of serum,[4],4.49%
same,% of signal without MORAb-003 (MORAb-003 interference),[5],61%
same,Drug Suppression of Cal Signal at 500 pg/mL,[6],-11%
same,% of signal without MORAb-003 (MORAb-003 interference),[7],73%
same,Drug Suppression of Cal Signal at 500 pg/mL,[8],-11%
same,Drug Suppression of Cal Signal at 500 pg/mL,[9],2%
same,Drug Suppression of Cal Signal at 500 pg/mL,[10],-19%
same,Drug Suppression of Cal Signal at 500 pg/mL,[11],-21%
same,"percent inhibition (sample #DLSO-015, serum)",[12],21%
same,Drug Suppression of Cal Signal at 500 pg/mL,[13],-5%
same,Drug Suppression of Cal Signal at 500 pg/mL,[14],-9%
same,Drug Suppression of Cal Signal at 500 pg/mL,[15],-7%
same,Drug suppression of serum,[16],-22.2%
same,Drug Suppression of Cal Signal at 500 pg/mL,[17],-9%
same,Drug Suppression of Cal Signal at 500 pg/mL,[18],2%
same,Drug Suppression of Cal Signal at 500 pg/mL,[19],-1%
same,Drug suppression of serum,[20],-2.12%
same,Drug suppression of serum,[21],-55.6%
same,Drug suppression of serum,[22],4.68%
same,Drug Suppression of Cal Signal at 500 pg/mL,[23],-7%
same,% of signal without MORAb-003 (MORAb-003 interference),[24],57%
